Test results as given in patent US20180030119A1.

Experiments:
[1] = biological target: F protein on intact RSV particles (Example 11, strain not stated) (RSV, strain not stated); experiment: competition ELISA: RSV particles pre-incubated with inhibiting mAb at 20 ug/mL, then added to plates coated with AR201 (competitor)
[2] = biological target: F protein on intact RSV particles (Example 11, strain not stated) (RSV, strain not stated); experiment: competition ELISA: RSV particles pre-incubated with inhibiting mAb at 20 ug/mL, then added to plates coated with palivizumab (competitor, self)
[3] = biological target: F protein of RSV reference strain RSV-B (ATCC VR 1580), on virus (RSV-B (ATCC VR 1580)) (UniProt P13843); experiment: cell-based or functional assay
[4] = biological target: F protein of RSV reference strain RSV-A Long (ATCC VR-26), on virus (RSV-A Long (ATCC VR-26)) (UniProt P12568); experiment: cell-based or functional assay
[5] = biological target: F protein on intact RSV particles (Example 11, strain not stated) (RSV, strain not stated); experiment: competition ELISA: RSV particles pre-incubated with control IgG at 20 ug/mL, plates coated with palivizumab; this is the reference set to 100 %
[6] = biological target: F protein on intact RSV particles (Example 11, strain not stated) (RSV, strain not stated); experiment: competition ELISA: RSV particles pre-incubated with control IgG at 20 ug/mL, plates coated with AR201; this is the reference set to 100 %

Sequence of F protein of RSV reference strain RSV-B (ATCC VR 1580), on virus (RSV-B (ATCC VR 1580)) (P13843 26-574): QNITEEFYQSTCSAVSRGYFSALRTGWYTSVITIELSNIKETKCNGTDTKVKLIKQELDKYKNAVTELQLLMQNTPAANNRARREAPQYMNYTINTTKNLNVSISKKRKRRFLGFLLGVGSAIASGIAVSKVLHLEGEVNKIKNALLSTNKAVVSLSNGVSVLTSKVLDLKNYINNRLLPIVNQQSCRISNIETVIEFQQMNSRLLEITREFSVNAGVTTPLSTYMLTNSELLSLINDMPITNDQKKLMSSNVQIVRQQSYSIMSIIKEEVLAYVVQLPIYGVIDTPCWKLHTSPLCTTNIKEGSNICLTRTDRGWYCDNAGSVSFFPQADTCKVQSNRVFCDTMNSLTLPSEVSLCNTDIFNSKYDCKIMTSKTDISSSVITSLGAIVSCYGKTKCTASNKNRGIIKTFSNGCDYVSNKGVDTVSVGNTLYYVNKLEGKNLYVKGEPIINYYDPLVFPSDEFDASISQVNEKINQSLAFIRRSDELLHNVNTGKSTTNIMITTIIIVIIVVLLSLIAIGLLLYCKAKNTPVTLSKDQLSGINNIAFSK
Sequence of F protein of RSV reference strain RSV-A Long (ATCC VR-26), on virus (RSV-A Long (ATCC VR-26)) (P12568 26-574): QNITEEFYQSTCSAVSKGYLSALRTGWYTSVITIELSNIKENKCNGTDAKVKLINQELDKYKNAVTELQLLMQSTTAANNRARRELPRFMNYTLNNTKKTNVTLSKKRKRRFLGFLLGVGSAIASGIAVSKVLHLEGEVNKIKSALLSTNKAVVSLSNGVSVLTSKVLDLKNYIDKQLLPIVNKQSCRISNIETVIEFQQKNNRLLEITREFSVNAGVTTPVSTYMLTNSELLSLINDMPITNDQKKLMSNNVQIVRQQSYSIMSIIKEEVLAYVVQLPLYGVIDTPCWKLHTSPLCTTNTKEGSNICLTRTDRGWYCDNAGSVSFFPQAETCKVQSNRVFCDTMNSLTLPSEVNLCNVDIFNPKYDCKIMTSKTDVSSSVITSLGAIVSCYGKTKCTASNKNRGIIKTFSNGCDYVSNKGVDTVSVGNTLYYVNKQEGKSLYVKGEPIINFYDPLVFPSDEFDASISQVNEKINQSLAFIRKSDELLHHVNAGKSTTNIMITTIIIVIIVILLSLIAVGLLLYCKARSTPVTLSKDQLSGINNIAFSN

Substance | binding of RSV to the coated mAb, % of binding with control IgG [1] [%] | binding of RSV to the coated mAb, % of binding with control IgG [2] [%] | Estimated half-maximal effective antibody concentration (ng/mL), plaque neutralisation on Vero cells [3] [ng/mL] | Estimated half-maximal effective antibody concentration (ng/mL), plaque neutralisation on Vero cells [4] [ng/mL] | binding of RSV to the coated mAb, % of binding with control IgG [5] [%] | binding of RSV to the coated mAb, % of binding with control IgG [6] [%]
palivizumab (antibody) | 29.2 | 35.3 | 200 | 100 | – | –
unrelated fully human monoclonal IgG1 antibody (control) | – | – | > 1000 | > 1000 | 100 | 100
